From article PMC11098746 (2024)

Key:
Assay in all cases: AVEXIS screen signal:noise (double-corrected)
[1] = molecular target: T1, ADP385
T1 chain: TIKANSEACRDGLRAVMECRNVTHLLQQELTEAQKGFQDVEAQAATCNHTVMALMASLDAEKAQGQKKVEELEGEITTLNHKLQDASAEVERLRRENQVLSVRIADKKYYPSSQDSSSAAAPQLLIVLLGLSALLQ

[2] = molecular target: T2, ADP318
T2 chain: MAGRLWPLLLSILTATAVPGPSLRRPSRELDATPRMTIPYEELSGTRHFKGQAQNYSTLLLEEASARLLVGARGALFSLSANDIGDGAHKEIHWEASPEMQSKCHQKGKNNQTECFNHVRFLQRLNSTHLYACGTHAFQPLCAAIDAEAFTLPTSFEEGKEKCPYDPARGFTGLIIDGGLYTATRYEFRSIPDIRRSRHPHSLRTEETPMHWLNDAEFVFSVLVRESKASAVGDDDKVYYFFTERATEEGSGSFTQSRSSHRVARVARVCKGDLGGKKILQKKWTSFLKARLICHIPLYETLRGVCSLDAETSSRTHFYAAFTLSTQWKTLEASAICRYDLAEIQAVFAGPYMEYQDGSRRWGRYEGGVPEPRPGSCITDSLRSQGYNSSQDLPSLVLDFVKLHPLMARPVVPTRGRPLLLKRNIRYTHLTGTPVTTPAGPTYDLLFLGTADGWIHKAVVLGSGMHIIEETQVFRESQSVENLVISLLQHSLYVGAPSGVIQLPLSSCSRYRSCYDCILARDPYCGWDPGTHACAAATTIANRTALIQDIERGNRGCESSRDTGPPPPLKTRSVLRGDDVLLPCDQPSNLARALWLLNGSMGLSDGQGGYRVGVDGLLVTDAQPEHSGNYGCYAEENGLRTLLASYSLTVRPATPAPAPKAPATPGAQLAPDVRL

[3] = molecular target: T3, ADP378
T3 chain: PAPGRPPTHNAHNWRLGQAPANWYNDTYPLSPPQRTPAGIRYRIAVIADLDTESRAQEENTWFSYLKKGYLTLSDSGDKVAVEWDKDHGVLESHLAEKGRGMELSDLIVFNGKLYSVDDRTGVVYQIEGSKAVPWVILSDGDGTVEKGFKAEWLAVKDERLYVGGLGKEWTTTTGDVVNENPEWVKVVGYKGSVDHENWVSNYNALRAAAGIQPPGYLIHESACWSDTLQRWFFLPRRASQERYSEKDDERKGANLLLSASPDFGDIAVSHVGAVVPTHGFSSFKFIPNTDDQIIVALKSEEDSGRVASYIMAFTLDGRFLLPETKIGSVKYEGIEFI

[4] = molecular target: T4, ADP155
T4 chain: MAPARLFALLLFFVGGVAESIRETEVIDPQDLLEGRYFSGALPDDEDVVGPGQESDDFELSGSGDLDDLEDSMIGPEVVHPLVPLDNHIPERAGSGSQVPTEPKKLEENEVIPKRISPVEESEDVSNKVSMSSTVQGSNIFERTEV

[5] = molecular target: T5, ADP154
T5 chain: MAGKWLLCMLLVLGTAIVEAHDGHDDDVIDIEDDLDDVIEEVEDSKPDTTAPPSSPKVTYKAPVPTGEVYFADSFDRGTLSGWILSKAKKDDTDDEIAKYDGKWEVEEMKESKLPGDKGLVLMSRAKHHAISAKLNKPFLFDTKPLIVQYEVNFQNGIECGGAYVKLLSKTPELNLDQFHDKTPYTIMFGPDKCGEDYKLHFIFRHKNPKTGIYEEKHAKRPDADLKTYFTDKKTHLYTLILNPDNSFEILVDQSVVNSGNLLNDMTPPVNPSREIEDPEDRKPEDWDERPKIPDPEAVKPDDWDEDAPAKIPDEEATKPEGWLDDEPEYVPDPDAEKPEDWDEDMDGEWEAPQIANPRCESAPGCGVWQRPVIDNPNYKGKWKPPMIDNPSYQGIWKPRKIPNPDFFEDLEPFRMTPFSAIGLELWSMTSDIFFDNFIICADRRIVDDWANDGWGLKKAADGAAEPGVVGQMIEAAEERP

[6] = molecular target: T6, ADP262
T6 chain: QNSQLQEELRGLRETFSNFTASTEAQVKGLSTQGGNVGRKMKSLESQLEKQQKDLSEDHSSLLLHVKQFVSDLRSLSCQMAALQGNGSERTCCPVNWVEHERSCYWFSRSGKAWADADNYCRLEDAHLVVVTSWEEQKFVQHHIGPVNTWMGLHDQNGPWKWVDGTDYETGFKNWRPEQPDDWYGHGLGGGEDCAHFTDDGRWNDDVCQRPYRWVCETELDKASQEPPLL

B1: ADP195 (protein)
chain: FRKYDKNKNKILISHSINNNNNAIKNNNNNNNAIKNNNNNNNAIKNNNNNNNAFSATSFSSEKNKNKAYTNVLKKKNIYIREESNKATNIKEDEEKNKKINNNDKETNYAFLSLKFFPFILTSLLHTGINQIPRNTEIELYEFEKSPMIRHMLVAEERKN
modifications: bait human Fc-tagged dimer; N-glycosylation sequons mutated in Plasmodium baits
binding score [1]: 18.7 | binding score [2]: 5.72

B2: ADP244 (protein)
chain: GIITGKLNYFGTFSLKIFAKTYFQYKINTYSNLYSYCGISQEYNKAKSTCESCPIGTFWNSEKLLCENCQKYIENTATLKNGAKLKTDCLCSPGYEYSDKSSKCEKCKPGYYKKSVGNFICIKGCPINEKSITYGAKSYAEMDCKCIEGYYRKEDKCVLCLSNYYCPGNELIKPCDKNKISKEGVIHKNDCICKENYIKDNKNNNCVYCASIAKILGKPIYCSLCDPIYFHEDIYKNIFLLPNNIHNYGLINNIYNYDEDLSLQGNIMKYAYFHKTTNIERNFAHYINIKNIYHTFNNNINNYDYLTNSKFAIEIDIPEPKKCIFCDSGYYIKKKKCISCTTKYCEGFNHNPKACPKNSVVNKMKASSIFDCSCKRGYGILNERRNAYSNTITCQICPQNFFKHIISDDSCFPCPLYTYTLNQGATSILQCLPKKGYFIYMFKSINIDYLRYKFDINTENRIYNYFENNNKIFDEDVYNFFLNKQYSKFFYNTENK
modifications: bait human Fc-tagged dimer; N-glycosylation sequons mutated in Plasmodium baits
binding score [3]: 6.32

B3: ADP243 (protein)
chain: SDSYSTGGNEKEKIFMDNYKYMWTYIYFLQKRIMMKKLSHPLYMSKKFILLHNPKDIEEFRIPLKDTLWSYVDRNSIKGFININLDSIFDIDLKEYYVHDKENMANSEKSEDLECIDAYVQKTNEIYYNMADTKDEAYIFICKKCKHIYKDIKECREKSMQLMIQNMKITVPQIRLKYDKKNRNNEEIIINIPVTYVLSNLLSSLKKTVTYNTDDLNNACNVLIKMLHLDLLKILYNLQYHNGIFNGITEKYLIEFRNIFVKRQKTNTEDNNDMIWEECFVLKKSIDKIMNINSFLLTKSRNRYMDYLQNRRKRYRDILFMITYNVADMNLNTYIKSIYNYIHISTKIIEDIQYIYNQEVYATFFVRTELIETYLLRNPKQLKNTCSIYIMITISWFFNQINIGMYNKNKNVYDLFKEKFSKSNVKQIINSIYTNNVENKANILQICNDAMTNTIELIKKVIKNYYKQNNVLSNYNINFAGLIKFIDIQILRMKFIQSTLEKQPLIEYDTLNDDHLNNDAIIKRENMVCMMKYISNKINTYISLLKKSDLQTIMLQNYDKYNIYLDTYFTHNENVFFCSSPGQYLIIKIFFYSFFNILNIYG
modifications: bait human Fc-tagged dimer; N-glycosylation sequons mutated in Plasmodium baits
binding score [4]: 8.67 | binding score [5]: 8.73

B4: ADP239 (protein)
chain: NNLDKNKNFIQYKNFKKNKAYKYKNNNNNIIIINSHSHSNSHSNSHSHSNSHSNSHSHSNSHSNSHSHSNSHSHSHSNSHSNSHSHSSTQNSLYHDTNQANFLKPTSFFLYKHHVYFNQKYKKDPNILNKLKVPRNHIFHINKCDLNYYIQNYEFFFFFPDYYEYSHLYIRLDKLFYFQRCGCDTNIKKTKKRNQNIFNNMLGMKEKDTYLQNEICDIYWNYLKDDNTYDKYNFAIINYIKNIIKKMYRYLYIYKVFVLKQFYRIVYYNQGIRNFYYMLFSYIYNKGSIIYNYNQMYFKKHRKKQTIIRSKRFMNEHIKEEDVDYNIVKDEKDKSIQSTEQKSYLKNNAIQYFQCFLDKAMENKNAENELDKWIDPQSKSCYCSEEFAEPCTSEDLVDINNINQIMDNAFCEYNNNDNNNNDNNKNNNNNINNIINIYDNNILGDNVKNIFVALSEYKILQCNDKEKKDIIKKEQLYNYCKYGLNIWDNKNMYDYLNCLNVISYNKKDDKTCIRKCENIKKLCNIVAQFYSFEVCKKYYENNKHTEDIYINNFKYFSDHCKYIDPTNRGLVLCKHKNVECVYSQWSEWSTCSKTCIENEYDTNSARTRTRILLNKFEVPSKSCSFIINEKNNLMDINFCSYLPFCNKNNDMKKKDDERIMPFVISIKEIEKLNTLKYLNNDDNDLLNENYKNYESVHKNNECKVTDMYQYEYAISYNEKNKACSCPNNQAPCYFKDIYNSESWKKSLHILCKHNPHINVITADYIIIDCNMAISIKKKEIAVNTYLAMTFNCHSDIFQYIFCAKNIQSIRTN
modifications: bait human Fc-tagged dimer; N-glycosylation sequons mutated in Plasmodium baits
binding score [6]: 6.08
